The labels stand for the following.
B1: Natural full-length protein C inhibitor from human blood plasma (natural protein)
chain: EMKKRVEDLHVGATVAPSSRRDFTFDLYRALASAAPSQSIFFSPVSISMSLAMLSLGAGSSTKMQILEGLGLNLQKSSEKELHRGFQQLLQELNQPRDGFQLSLGNALFTDLVVDLQDTFVSAMKTLYLADTFPTNFRDSAGAMKQINDYVAKQTKGKIVDLLKNLDSNAVVIMVNYIFFKAKWETSFNHKGTQEQDFYVTSETVVRVPMMSREDQYHYLLDRNLSCRVVGVPYQGNATALFILPSEGKMQQVENGLSEKTLRKWLKMFKKRQLELYLPKFSIEGSYQLEKVLPSLGISNVFTSHADLSGISNHSNIQVSEMVHKAVVEVDESGTRAAAATGTIFTFRSARLNSQRLVFNRPFLMFIVDNNILFLGKVNRP
modifications: N-glycans at Asn-230, Asn-243 and Asn-319
B2: Neuraminic acid free full-length protein C inhibitor from human blood plasma (natural protein)
chain: EMKKRVEDLHVGATVAPSSRRDFTFDLYRALASAAPSQSIFFSPVSISMSLAMLSLGAGSSTKMQILEGLGLNLQKSSEKELHRGFQQLLQELNQPRDGFQLSLGNALFTDLVVDLQDTFVSAMKTLYLADTFPTNFRDSAGAMKQINDYVAKQTKGKIVDLLKNLDSNAVVIMVNYIFFKAKWETSFNHKGTQEQDFYVTSETVVRVPMMSREDQYHYLLDRNLSCRVVGVPYQGNATALFILPSEGKMQQVENGLSEKTLRKWLKMFKKRQLELYLPKFSIEGSYQLEKVLPSLGISNVFTSHADLSGISNHSNIQVSEMVHKAVVEVDESGTRAAAATGTIFTFRSARLNSQRLVFNRPFLMFIVDNNILFLGKVNRP
modifications: N-glycans at Asn-230, Asn-243 and Asn-319, sialic acids removed with neuraminidase
B3: PNGase F-treated full-length protein C inhibitor from human blood plasma (natural protein)
chain: EMKKRVEDLHVGATVAPSSRRDFTFDLYRALASAAPSQSIFFSPVSISMSLAMLSLGAGSSTKMQILEGLGLNLQKSSEKELHRGFQQLLQELNQPRDGFQLSLGNALFTDLVVDLQDTFVSAMKTLYLADTFPTNFRDSAGAMKQINDYVAKQTKGKIVDLLKNLDSNAVVIMVNYIFFKAKWETSFNHKGTQEQDFYVTSETVVRVPMMSREDQYHYLLDRNLSCRVVGVPYQGNATALFILPSEGKMQQVENGLSEKTLRKWLKMFKKRQLELYLPKFSIEGSYQLEKVLPSLGISNVFTSHADLSGISNHSNIQVSEMVHKAVVEVDESGTRAAAATGTIFTFRSARLNSQRLVFNRPFLMFIVDNNILFLGKVNRP
modifications: N-glycans removed with PNGase F

The target of this test is Prostate specific antigen used in the inhibition kinetics (human) (UniProt P07288).
Sequence of UniProt P07288 (P07288 25-261): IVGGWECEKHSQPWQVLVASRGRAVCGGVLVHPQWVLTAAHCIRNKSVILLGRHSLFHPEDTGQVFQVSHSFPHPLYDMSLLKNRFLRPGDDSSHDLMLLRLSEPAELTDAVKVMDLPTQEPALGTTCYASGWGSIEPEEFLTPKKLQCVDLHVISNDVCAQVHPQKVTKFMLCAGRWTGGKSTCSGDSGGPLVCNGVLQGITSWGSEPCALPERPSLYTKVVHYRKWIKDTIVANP
For “Neuraminic acid free, NH2-terminally cleaved protein C inhibitor from human blood plasma (natural protein)”, the second-order rate constant for PSA inhibition (discontinuous assay of residual PSA activity on a chromogenic substrate, 350 nM PSA, 10-fold excess of PCI, 25°C, pH 7.4) is 5.8 M^−1s^−1.

“PNGase F-treated protein C inhibitor from human blood plasma lacking the six NH2-terminal amino acids (natural protein)”: the second-order rate constant for PSA inhibition (discontinuous assay of residual PSA activity on a chromogenic substrate, 350 nM PSA, 10-fold excess of PCI, 25°C, pH 7.4) amounted to 29 M^−1s^−1.

Regarding “Protein C inhibitor from human blood plasma lacking the six NH2-terminal amino acids (natural protein)”, the second-order rate constant for PSA inhibition (discontinuous assay of residual PSA activity on a chromogenic substrate, 350 nM PSA, 10-fold excess of PCI, 25°C, pH 7.4) came to 4.1 M^−1s^−1.

As to B1, the second-order rate constant for PSA inhibition (discontinuous assay of residual PSA activity on a chromogenic substrate, 350 nM PSA, 10-fold excess of PCI, 25°C, pH 7.4) turned out to be 4.3 M^−1s^−1.

As for B2, the second-order rate constant for PSA inhibition (discontinuous assay of residual PSA activity on a chromogenic substrate, 350 nM PSA, 10-fold excess of PCI, 25°C, pH 7.4) is 5.2 M^−1s^−1.

For the molecule B3, the second-order rate constant for PSA inhibition (discontinuous assay of residual PSA activity on a chromogenic substrate, 350 nM PSA, 10-fold excess of PCI, 25°C, pH 7.4) is 4.8 M^−1s^−1.

The values above are taken from article PMC3242763.
